Laboratory results from patent US20160200781.

Tests used:
[1] = tested on: ZF6xHunt-Kox-1 (synthetic); test: cell_activity; conditions: htt mRNA repression up to 2.5-fold (60%); protein up to 2-fold; STHdh Q111 cells, 20 days
[2] = tested on: ZF11xHunt-Kox-1 (synthetic); test: cell_activity
Sequence of ZF11xHunt-Kox-1 (synthetic) (chain, as listed by the source): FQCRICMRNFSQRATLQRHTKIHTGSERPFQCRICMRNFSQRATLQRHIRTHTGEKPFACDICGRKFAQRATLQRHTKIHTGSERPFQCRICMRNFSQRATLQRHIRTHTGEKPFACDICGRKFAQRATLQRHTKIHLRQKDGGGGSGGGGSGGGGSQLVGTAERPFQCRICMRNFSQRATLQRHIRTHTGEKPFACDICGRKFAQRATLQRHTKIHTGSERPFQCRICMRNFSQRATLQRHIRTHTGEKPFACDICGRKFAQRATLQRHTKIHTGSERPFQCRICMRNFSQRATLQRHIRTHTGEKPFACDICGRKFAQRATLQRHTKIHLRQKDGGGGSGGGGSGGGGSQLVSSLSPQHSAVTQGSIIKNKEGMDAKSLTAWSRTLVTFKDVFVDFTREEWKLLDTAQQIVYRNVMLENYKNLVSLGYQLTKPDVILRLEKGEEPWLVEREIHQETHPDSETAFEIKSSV

Sequence of ZF6xHunt-Kox-1 (synthetic) (chain, as listed by the source): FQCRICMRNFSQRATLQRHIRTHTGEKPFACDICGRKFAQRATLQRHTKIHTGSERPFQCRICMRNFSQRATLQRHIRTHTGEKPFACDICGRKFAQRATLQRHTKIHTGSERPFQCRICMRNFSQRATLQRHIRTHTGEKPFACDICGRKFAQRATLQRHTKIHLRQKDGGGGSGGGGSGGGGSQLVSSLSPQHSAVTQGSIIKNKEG

Substance | activity [1] | activity ([2]; almost 80% mRNA reduction and 95% protein reduction, STHdh Q111 cells, 20 days) | activity ([2]; mean mutant htt mRNA reduction in R6/2 striatum at 6 weeks, AAV2/1 delivery)
mutant htt Q111 chromosomal locus | < 2.5 fold | 80 % reduction | 
R6/2 mutant htt transgene |  |  | > 45 % reduction
